Assay results taken from patent US20220162320A1 (published 2022).

Key:
[1] = target: T1, HLA-PEPTIDE target G2: HLA-A*01:01_…, recombinant soluble complex (human, enzymatically biotinylated (BirA)); test: BLI
[2] = target: T2, CD3 (reagent of the affinity experiments of Example 18) (UniProt P07766 23-126); test: BLI
T2 chain: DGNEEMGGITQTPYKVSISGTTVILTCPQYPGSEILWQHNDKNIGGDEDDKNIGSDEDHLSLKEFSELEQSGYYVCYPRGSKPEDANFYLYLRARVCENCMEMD

[3] = target: T1, HLA-PEPTIDE target G2: HLA-A*01:01_…, …; test: BLI; avid; apparent KD (bivalent)
[4] = target: T2, CD3 (reagent of the affinity …); test: BLI; avid; apparent KD (bivalent)
[5] = target: T1, HLA-PEPTIDE target G2: HLA-A*01:01_…, …; test: BLI; remark: listed apart in the source
[6] = target: T2, CD3 (reagent of the affinity …); test: BLI
[7] = target: T1, HLA-PEPTIDE target G2: HLA-A*01:01_…, …; test: BLI; apparent KD (bivalent), avid
[8] = target: T1, HLA-PEPTIDE target G2: HLA-A*01:01_…, …; test: BLI; remark: listed apart in the source
[9] = target: T2, CD3 (reagent of the affinity …); test: BLI
[10] = target: T1, HLA-PEPTIDE target G2: HLA-A*01:01_…, …; test: BLI; remark: listed apart in the source
[11] = target: T2, CD3 (reagent of the affinity …); test: BLI
[12] = target: T1, HLA-PEPTIDE target G2: HLA-A*01:01_…, …; test: BLI; apparent KD (bivalent), avid; remark: listed apart in the source
[13] = target: T2, CD3 (reagent of the affinity …); test: BLI; apparent KD (bivalent), avid
[14] = target: T1, HLA-PEPTIDE target G2: HLA-A*01:01_…, …; test: BLI; remark: listed apart in the source
[15] = target: T2, CD3 (reagent of the affinity …); test: BLI
[16] = target: T1, HLA-PEPTIDE target G2: HLA-A*01:01_…, …; test: BLI; remark: listed apart in the source
[17] = target: T2, CD3 (reagent of the affinity …); test: BLI; aCD3 IgG analyte, apparent KD (bivalent), avid
[18] = target: T2, CD3 (reagent of the affinity …); test: BLI; aCD3 IgG analyte
[19] = target: T2, CD3 (reagent of the affinity …); test: BLI; aCD3 IgG load
[20] = target: T2, CD3 (reagent of the affinity …); test: BLI
[21] = target: T2, CD3 (reagent of the affinity …); test: BLI; IgG analyte, apparent KD (bivalent), avid

B1: 6-G2(1H11)-αCD3 (bispecific antibody)
heavy: not shown
light: QAVVTQEPSLTVSPGGTVTLTCGSSTGAVTTSNYANWVQQKPGKSPRGLIGGTNKRAPGVPARFSGSLLGGKAALTISGAQPEDEADYYCALWYSNHWVFGGGTKLTVLRTVAAPSVFIFPPSDEQLKSGTASVVCLLNNFYPREAKVQWKVDNALQSGNSQESVTEQDSKDSTYSLSSTLTLSKADYEKHKVYACEVTHQGLSSPVTKSFNRGEC
[1]
  Kd: 215 nM
[2]
  Kd: 5.95 nM
[3]
  Kd: 4.53 nM
[4]
  Kd: 0.828 nM

B2: 5-G2(1H11)-αCD3 (bispecific antibody)
chain: not shown
heavy: QVQLVQSGAEVKKPGASVKVSCKASGYTFTNYYMHWVRQAPGQGLEWMGMINPSGGGTSYAQKFQGRVTMTRDTSTSTVYMELSSLRSEDTAVYYCARGNPWELRLDYWGQGTLVTVSSGGGGSGGGGSGGGGSGGGGSDIQMTQSPSSLSASVGDRVTITCQASQDISNYLNWYQQKPGKAPKLLIYAASSLQSGVPSRFSGSGSGTDFTLTISSLQPEDFATYYCQQYYSYPFTFGPGTKVDIKGGGGSGGGGSEVQLVESGGGLVQPGGSLRLSCAASGFTFSTYAMNWVRQAPGKGLEWVGRIRSKYNNYATYYADSVKGRFTISRDDSKNTLYLQMNSLRAEDTAVYYCVRHGNFGDSYVSWFAYWGQGTLVTVSSASTKGPSVFPLAPSSKSTSGGTAALGCLVKDYFPEPVTVSWNSGALTSGVHTFPAVLQSSGLYSLSSVVTVPSSSLGTQTYICNVNHKPSNTKVDKRVEPKSCDKTHTCPPCPAPELLGGPSVFLFPPKPKDTLMISRTPEVTCVVVDVSHEDPEVKFNWYVDGVEVHNAKTKPREEQYQSTYRVVSVLTVLHQDWLNGKEYKCKVSNKALPAPIEKTISKAKGQPREPQVCTLPPSREEMTKNQVSLSCAVKGFYPSDIAVEWESNGQPENNYKTTPPVLDSDGSFFLVSKLTVDKSRWQQGNVFSCSVMHEALHNRFTQKSLSLSPGK
light: B1 light
[5]
  Kd: 28.8 nM
[6]
  Kd: 20 nM

B3: 4-G2(1H11)-αCD3 (bispecific antibody)
chain: not shown
heavy: B2 heavy
light: B1 light
[7]
  Kd: 2.95 nM
[8]
  Kd: 543 nM
[9]
  Kd: 11.6 nM

B4: 2-G2(1H11)-αCD3 (bispecific antibody)
heavy: not shown
light: B1 light
[10]
  Kd: 82.2 nM
[11]
  Kd: 6.02 nM
[12]
  Kd: 3.41 nM
[13]
  Kd: 0.696 nM

B5: 3-G2(1H11)-hOKT3 (bispecific antibody)
chain: not shown
heavy: QVQLVQSGAEVKKPGASVKVSCKASGYTFTRYTMHWVRQAPGQGLEWMGYINPSRGYTNYNQKFKDRVTLTTDKSSSTAYMELSSLRSEDTAVYYCARYYDDHYSLDYWGQGTLVTVSSASTKGPSVFPLAPSSKSTSGGTAALGCLVKDYFPEPVTVSWNSGALTSGVHTFPAVLQSSGLYSLSSVVTVPSSSLGTQTYICNVNHKPSNTKVDKRVEPKSCDKTHTCPPCPAPELLGGPSVFLFPPKPKDTLMISRTPEVTCVVVDVSHEDPEVKFNWYVDGVEVHNAKTKPREEQYQSTYRVVSVLTVLHQDWLNGKEYKCKVSNKALPAPIEKTISKAKGQPREPQVCTLPPSREEMTKNQVSLSCAVKGFYPSDIAVEWESNGQPENNYKTTPPVLDSDGSFFLVSKLTVDKSRWQQGNVFSCSVMHEALHNRFTQKSLSLSPGK
light: DIQMTQSPSSLSASVGDRVTITCSASSSVSYMNWYQQKPGKAPKRLIYDTSKLASGVPSRFSGSGSGTDFTLTISSLQPEDFATYYCQQWSSNPFTFGQGTKLEIKRTVAAPSVFIFPPSDEQLKSGTASVVCLLNNFYPREAKVQWKVDNALQSGNSQESVTEQDSKDSTYSLSSTLTLSKADYEKHKVYACEVTHQGLSSPVTKSFNRGEC
[14]
  Kd: 421 nM
[15]
  Kd: 168 nM

B6: 3-G2(1H11)-OKT3 (bispecific antibody)
chain: not shown
heavy: not shown
light: QIVLTQSPAIMSASPGEKVTMTCSASSSVSYMNWYQQKSGTSPKRWIYDTSKLASGVPAHFRGSGSGTSYSLTISGMEAEDAATYYCQQWSSNPFTFGSGTKLEINRTVAAPSVFIFPPSDEQLKSGTASVVCLLNNFYPREAKVQWKVDNALQSGNSQESVTEQDSKDSTYSLSSTLTLSKADYEKHKVYACEVTHQGLSSPVTKSFNRGEC
[16]
  Kd: 24.8 nM

B7: antibody designated αCD3, in IgG format (antibody, V domains shown)
VH: EVQLVESGGGLVQPGGSLRLSCAASGFTFSTYAMNWVRQAPGKGLEWVGRIRSKYNNYATYYADSVKGRFTISRDDSKNTLYLQMNSLRAEDTAVYYCVRHGNFGDSYVSWFAYWGQGTLVTVSS
VL: QAVVTQEPSLTVSPGGTVTLTCGSSTGAVTTSNYANWVQQKPGKSPRGLIGGTNKRAPGVPARFSGSLLGGKAALTISGAQPEDEADYYCALWYSNHWVFGGGTKLTVLR
[17]
  Kd: < 0.001 nM
[18]
  Kd: 144 nM
[19]
  Kd: 2.92 nM

B8: 3-OKT3-G2(1H11) (antibody)
chain 1: not shown
chain 2: not shown
chain 3: MDMRVPAQLLGLLLLWLPGARCQIVLTQSPAIMSASPGEKVTMTCSASSSVSYMNWYQQKSGTSPKRWIYDTSKLASGVPAHFRGSGSGTSYSLTISGMEAEDAATYYCQQWSSNPFTFGSGTKLEINRTVAAPSVFIFPPSDEQLKSGTASVVCLLNNFYPREAKVQWKVDNALQSGNSQESVTEQDSKDSTYSLSSTLTLSKADYEKHKVYACEVTHQGLSSPVTKSFNRGEC
[16]
  Kd: 23.8 nM

B9: hOKT3 IgG (antibody, V domains shown)
VH: QVQLVQSGAEVKKPGASVKVSCKASGYTFTRYTMHWVRQAPGQGLEWMGYINPSRGYTNYNQKFKDRVTLTTDKSSSTAYMELSSLRSEDTAVYYCARYYDDHYSLDYWGQGTLVTVSS
VL: DIQMTQSPSSLSASVGDRVTITCSASSSVSYMNWYQQKPGKAPKRLIYDTSKLASGVPSRFSGSGSGTDFTLTISSLQPEDFATYYCQQWSSNPFTFGQGTKLEIKR
[20]
  Kd: 268 nM
[21]
  Kd: 8.44 nM
